From article PMC4703389

How the values were obtained:
7D8-E345K (human) = experiment: dynamic light scattering; 7D8 and mutants in PBS pH 7.4 up to 100 mg/mL, 25°C; linear regression of diffusion coefficient versus antibody concentration; self-association
7D8-E430G (human) = experiment: as above

| interaction parameter from regression of the diffusion coefficient versus concentration (7D8-E345K (human)) [mL/g] | interaction parameter from regression of the diffusion coefficient versus concentration (7D8-E430G (human)) [mL/g] | Substance |
| --- | --- | --- |
| -0.0174 |  | 7D8-E345K (antibody) |
|  | -0.0126 | 7D8-E430G (antibody) |
